Data from paper doi:10.1101/2022.08.30.505785 (bioRxiv, 2022).

Target: the molecule itself
Experiment: SAXS

B1: Oxalyl-CoA synthetase from Saccharomyces cerevisiae, K352D variant (enzyme, S. cerevisiae, UniProt P38137 1-543, looked up)
chain: MTSAATVTASFNDTFSVSDNVAVIVPETDTQVTYRDLSHMVGHFQTMFTNPNSPLYGAVFRQDTVAISMRNGLEFIVAFLGATMDAKIGAPLNPNYKEKEFNFYLNDLKSKAICVPKGTTKLQSSEILKSASTFGCFIVELAFDATRFRVEYDIYSPEDNYKRVIYRSLNNAKFVNTNPVKFPGFARSSDVALILHTSGTTSTPKTVPLLHLNIVRSTLNIANTYKLTPLDRSYVVMPLFHVHGLIGVLLSTFRTQGSVVVPDGFHPKLFWDQFVKYNCNWFSCVPTISMIMLNMPKPNPFPHIRFIRSCSSALAPATFHKLEKEFNAPVLEAYAMTEASHQMTSNNLPPGDRKPGTVGQPQGVTVVILDDNDNVLPPGKVGEVSIRGENVTLGYANNPKANKENFTKRENYFRTGDQGYFDPEGFLVLTGRIKELINRGGEKISPIELDGIMLSHPKIDEAVAFGVPDDMYGQVVQAAIVLKKGEKMTYEELVNFLKKHLASFKIPTKVYFVDKLPKTATGKIQRRVIAETFAKSSRNKSKL
**Q.** How did the “stoichiometry N” value turn out when B1 was run?
**A.** 2
